The text below walks through data of publication PMC6349404, “Integrin alpha11 is an Osteolectin receptor and is required for the maintenance of adult skeletal bone mass” (eLife, 2019).

Common to all, as to assay: ELISA; microtiter well binding assay; plates coated with 10 nM recombinant human Osteolectin, Pro-Collagen 1α or BSA overnight at 4°C, blocked with 10 mg/ml BSA; 6xHis tagged integrins in TBS (50 mM Tris-Cl pH 7.5, 150 mM NaCl) with 1 mM MnCl2; bound integrin detected with anti-His tag antibody and HRP secondary, OD 450 nm
Holding throughout (conditions): both partners purified
(ELISA stands for enzyme-linked immunosorbent assay.)

The target in test [1] is T1, recombinant human integrin α10β1 (human, UniProt O75578 23-1122; P05556 21-728).
T1 construct: integrin α10, human, chain of the recombinant heterodimer; integrin β1, human, chain of the recombinant heterodimer; source: bought: R and D Systems
T1 sequence (O75578 23-1122, chain 1 of 2): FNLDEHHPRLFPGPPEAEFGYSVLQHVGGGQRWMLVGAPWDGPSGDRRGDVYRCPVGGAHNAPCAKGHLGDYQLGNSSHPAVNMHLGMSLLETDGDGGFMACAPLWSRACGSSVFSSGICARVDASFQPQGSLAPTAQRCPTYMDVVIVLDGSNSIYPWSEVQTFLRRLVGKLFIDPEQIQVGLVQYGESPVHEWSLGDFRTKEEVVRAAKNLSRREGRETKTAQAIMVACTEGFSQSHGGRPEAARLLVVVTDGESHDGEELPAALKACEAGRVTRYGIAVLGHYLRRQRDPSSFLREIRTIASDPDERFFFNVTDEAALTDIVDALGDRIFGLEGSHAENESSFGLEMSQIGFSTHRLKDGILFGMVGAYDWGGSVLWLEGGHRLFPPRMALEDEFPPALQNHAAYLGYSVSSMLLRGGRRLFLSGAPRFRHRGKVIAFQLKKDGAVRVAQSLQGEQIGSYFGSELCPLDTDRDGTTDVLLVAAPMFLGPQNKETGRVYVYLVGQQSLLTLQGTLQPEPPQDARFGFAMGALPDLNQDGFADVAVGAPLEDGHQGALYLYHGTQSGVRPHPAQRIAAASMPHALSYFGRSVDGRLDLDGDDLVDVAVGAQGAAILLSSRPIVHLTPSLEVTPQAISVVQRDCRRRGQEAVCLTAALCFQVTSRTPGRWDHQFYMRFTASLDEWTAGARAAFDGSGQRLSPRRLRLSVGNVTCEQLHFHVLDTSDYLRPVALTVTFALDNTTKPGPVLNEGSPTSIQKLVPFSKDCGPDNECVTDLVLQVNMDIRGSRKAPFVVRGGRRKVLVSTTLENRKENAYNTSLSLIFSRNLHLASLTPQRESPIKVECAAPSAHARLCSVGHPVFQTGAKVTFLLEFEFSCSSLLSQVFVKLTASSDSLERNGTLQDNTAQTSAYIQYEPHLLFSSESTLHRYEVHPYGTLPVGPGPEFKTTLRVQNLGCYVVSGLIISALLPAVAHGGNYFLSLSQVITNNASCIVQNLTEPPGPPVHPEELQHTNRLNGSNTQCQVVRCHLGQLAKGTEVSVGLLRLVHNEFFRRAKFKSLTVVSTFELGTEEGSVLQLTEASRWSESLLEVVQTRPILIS
T1 sequence (P05556 21-728, chain 2 of 2): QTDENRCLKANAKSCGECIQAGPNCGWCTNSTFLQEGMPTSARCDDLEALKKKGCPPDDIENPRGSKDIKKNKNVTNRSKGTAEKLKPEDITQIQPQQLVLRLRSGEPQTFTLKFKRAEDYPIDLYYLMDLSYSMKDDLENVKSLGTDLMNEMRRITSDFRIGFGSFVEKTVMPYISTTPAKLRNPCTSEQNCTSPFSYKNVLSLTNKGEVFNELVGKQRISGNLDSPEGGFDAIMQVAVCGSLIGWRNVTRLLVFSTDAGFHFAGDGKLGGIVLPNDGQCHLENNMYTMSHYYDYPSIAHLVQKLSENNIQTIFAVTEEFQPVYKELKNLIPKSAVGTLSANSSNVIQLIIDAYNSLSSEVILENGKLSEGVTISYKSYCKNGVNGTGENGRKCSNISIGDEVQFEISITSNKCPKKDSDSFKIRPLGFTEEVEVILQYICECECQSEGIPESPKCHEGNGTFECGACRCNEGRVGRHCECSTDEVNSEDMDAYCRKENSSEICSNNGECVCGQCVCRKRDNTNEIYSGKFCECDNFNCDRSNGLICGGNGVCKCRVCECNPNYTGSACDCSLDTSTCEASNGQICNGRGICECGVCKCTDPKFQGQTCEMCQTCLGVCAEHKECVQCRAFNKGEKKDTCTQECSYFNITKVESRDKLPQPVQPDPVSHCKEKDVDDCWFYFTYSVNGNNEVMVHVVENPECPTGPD

In test [2] the target is T2, recombinant human integrin α9β1 (human, UniProt Q13797 30-981; P05556 21-728).
T2 construct: integrin α9, human, chain of the recombinant heterodimer; integrin β1, human, chain of the recombinant heterodimer; source: bought: R and D Systems
T2 sequence (Q13797 30-981, chain 1 of 2): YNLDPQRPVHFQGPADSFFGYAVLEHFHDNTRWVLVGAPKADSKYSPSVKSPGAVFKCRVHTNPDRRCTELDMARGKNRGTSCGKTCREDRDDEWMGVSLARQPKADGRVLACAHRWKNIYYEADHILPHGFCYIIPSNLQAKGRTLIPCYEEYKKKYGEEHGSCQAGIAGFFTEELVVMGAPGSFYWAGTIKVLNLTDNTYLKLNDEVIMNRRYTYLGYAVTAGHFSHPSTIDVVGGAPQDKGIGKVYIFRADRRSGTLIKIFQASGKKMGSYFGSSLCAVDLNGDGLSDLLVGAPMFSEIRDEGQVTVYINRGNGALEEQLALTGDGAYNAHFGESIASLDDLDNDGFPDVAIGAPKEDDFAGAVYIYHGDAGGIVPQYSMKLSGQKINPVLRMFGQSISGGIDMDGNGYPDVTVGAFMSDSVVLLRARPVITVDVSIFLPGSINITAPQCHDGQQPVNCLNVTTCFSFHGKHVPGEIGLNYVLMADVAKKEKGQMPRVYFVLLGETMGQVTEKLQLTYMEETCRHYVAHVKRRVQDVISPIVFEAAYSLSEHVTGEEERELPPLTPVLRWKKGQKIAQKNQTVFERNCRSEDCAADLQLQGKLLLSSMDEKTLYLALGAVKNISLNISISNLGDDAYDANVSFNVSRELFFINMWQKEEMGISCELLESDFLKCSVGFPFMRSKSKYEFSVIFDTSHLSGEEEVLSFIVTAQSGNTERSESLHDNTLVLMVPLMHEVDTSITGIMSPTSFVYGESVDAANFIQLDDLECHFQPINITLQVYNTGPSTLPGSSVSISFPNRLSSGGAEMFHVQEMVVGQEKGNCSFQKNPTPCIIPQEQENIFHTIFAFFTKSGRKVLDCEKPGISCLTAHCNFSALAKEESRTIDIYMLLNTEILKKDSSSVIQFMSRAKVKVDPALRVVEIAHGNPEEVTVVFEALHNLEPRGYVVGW
T2 sequence (P05556 21-728, chain 2 of 2): as the sequence (P05556 21-728, chain 2 of 2) above

Test [3] concerns the target recombinant human integrin αMβ2 (human, UniProt P11215 17-1104; P05107 23-700).
Test [4] concerns the target T3, recombinant human integrin α11β1 (human, UniProt Q9UKX5 23-1141; P05556 21-728).
T3 construct: integrin α11, human, chain of the recombinant heterodimer; integrin β1, human, chain of the recombinant heterodimer; also called α11β1 integrin; source: bought: R and D Systems

Test [5] deals with T4, recombinant human integrin α4β1 (human, UniProt P13612 35-977; P05556 21-728).
T4 construct: integrin α4, human, chain of the recombinant heterodimer; integrin β1, human, chain of the recombinant heterodimer; source: bought: R and D Systems
T4 sequence (P13612 35-977, chain 1 of 2): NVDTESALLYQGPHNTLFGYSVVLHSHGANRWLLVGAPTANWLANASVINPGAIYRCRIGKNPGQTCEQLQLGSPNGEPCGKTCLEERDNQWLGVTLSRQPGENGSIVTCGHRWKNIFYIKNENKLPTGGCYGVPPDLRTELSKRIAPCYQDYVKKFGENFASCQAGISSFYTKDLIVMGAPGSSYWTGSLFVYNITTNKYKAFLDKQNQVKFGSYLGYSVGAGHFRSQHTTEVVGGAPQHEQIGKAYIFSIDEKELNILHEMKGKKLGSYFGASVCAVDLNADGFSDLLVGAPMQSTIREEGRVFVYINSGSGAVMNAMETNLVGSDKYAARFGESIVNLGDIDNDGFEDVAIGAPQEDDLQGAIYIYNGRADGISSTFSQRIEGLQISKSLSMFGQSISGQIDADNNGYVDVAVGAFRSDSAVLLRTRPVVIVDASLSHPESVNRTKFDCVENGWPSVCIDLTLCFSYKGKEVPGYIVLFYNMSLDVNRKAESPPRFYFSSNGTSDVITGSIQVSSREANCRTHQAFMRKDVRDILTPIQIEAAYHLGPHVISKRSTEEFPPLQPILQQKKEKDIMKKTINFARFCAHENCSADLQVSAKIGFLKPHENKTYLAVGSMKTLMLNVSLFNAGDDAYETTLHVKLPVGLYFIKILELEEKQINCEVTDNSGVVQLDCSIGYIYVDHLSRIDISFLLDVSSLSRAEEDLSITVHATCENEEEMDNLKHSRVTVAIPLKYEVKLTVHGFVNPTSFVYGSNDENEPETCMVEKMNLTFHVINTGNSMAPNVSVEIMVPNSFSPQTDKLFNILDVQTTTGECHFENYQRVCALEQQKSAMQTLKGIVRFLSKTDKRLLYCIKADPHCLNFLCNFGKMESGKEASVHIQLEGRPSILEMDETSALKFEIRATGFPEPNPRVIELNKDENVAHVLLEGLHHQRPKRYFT
T4 sequence (P05556 21-728, chain 2 of 2): as the sequence (P05556 21-728, chain 2 of 2) above

T3 sequence (Q9UKX5 23-1141, chain 1 of 2): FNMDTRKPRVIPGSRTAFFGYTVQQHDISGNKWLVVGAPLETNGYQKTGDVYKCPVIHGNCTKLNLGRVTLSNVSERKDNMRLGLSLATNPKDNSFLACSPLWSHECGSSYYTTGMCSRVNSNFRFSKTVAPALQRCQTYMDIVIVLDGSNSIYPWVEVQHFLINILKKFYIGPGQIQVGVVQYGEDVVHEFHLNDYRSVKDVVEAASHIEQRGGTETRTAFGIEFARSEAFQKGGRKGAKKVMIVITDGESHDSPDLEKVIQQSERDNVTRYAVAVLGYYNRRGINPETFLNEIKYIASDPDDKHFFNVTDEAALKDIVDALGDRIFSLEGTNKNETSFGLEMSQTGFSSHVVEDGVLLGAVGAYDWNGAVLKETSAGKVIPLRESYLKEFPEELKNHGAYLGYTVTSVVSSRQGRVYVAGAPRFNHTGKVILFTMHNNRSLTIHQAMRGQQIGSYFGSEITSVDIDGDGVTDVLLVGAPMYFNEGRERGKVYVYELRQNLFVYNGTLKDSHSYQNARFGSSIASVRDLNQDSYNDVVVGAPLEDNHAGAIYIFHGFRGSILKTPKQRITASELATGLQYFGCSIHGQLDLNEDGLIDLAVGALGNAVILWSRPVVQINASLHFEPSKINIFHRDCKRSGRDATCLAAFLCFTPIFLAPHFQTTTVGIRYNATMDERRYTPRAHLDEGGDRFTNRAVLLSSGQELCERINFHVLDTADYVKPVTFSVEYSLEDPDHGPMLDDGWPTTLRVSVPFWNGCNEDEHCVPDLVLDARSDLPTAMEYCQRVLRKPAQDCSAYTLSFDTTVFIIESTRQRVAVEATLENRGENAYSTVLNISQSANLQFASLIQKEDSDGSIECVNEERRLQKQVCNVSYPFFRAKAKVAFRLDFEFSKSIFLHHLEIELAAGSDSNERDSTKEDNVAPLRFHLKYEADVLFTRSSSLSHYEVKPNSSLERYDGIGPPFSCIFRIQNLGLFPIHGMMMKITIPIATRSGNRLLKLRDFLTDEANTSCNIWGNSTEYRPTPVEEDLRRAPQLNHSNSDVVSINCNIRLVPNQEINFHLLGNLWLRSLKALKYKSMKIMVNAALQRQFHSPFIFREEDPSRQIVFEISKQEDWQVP
T3 sequence (P05556 21-728, chain 2 of 2): as the sequence (P05556 21-728, chain 2 of 2) above

B1: recombinant human Osteolectin (ligand, UniProt Q9Y240 22-323, looked up)
chain: ARGAEREWEGGWGGAQEEEREREALMLKHLQEALGLPAGRGDENPAGTVEGKEDWEMEEDQGEEEEEEATPTPSSGPSPSPTPEDIVTYILGRLAGLDAGLHQLHVRLHALDTRVVELTQGLRQLRNAAGDTRDAVQALQEAQGRAEREHGRLEGCLKGLRLGHKCFLLSRDFEAQAAAQARCTARGGSLAQPADRQQMEALTRYLRAALAPYNWPVWLGVHDRRAEGLYLFENGQRVSFFAWHRSPRPELGAQPSASPHPLSPDQPNGGTLENCVAQASDDGSWWDHDCQRRLYYVCEFPF
notes: Osteolectin/Clec11a, human; cDNA cloned into pcDNA3 with a C-terminal 1XFlag-tag; secreted into the culture medium; also called rhOln; Clec11a
For orientation: Kd means the concentration at which binding is half-saturated. For B1, the dissociation constant (Kd) is 0.3 nM in test [1]; > 100 nM in test [2]; > 100 nM in test [3]; 0.3 nM in test [4]; > 100 nM in test [5].
